Measured values as given in publication PMC9482650, “Quantitative fragmentomics allow affinity mapping of interactomes” (Nature Communications, 2022).

Key:
Assay in all cases: holdup assay
Set-up in all cases: key: below the threshold = too weak to quantify, mostly under pKd 3.1 to 4
Conditions in all cases: plain residues with an end cap or a label only (N-terminal biotin on a linker: ttds)
[1] = target: T1, MPP1, Q00013
T1 sequence (Q00013 66-162, limits assumed, looked up): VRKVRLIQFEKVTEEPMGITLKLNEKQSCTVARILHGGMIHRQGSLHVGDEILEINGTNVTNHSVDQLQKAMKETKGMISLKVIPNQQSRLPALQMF

[2] = target: SDCBP_1, O00560
Sequence of SDCBP_1, O00560 (O00560 111-198): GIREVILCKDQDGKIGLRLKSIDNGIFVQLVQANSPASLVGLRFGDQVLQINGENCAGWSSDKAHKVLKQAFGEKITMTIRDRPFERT

[3] = target: T2, DVL1, O14640
T2 sequence (O14640 246-333, limits assumed, looked up): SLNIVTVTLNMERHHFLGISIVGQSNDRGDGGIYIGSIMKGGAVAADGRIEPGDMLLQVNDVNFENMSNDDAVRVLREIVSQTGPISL

[4] = target: T3, PREX2_2, Q70Z35
T3 sequence (Q70Z35 672-764, limits assumed, looked up): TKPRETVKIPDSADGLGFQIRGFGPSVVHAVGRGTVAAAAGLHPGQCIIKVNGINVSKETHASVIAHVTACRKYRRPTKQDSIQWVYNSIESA

[5] = target: T4, TJP3_1, O95049
T4 sequence (O95049 6-103, limits assumed, looked up): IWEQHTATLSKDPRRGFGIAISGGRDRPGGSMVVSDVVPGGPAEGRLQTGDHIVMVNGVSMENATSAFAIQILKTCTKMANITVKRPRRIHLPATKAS

[6] = target: T5, LNX2_4, Q8N448
T5 sequence (Q8N448 595-690, limits assumed, looked up): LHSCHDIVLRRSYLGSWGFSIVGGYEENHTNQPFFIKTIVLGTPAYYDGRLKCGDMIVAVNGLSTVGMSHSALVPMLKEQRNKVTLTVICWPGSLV

[7] = target: T6, RGS12, O14924
T6 sequence (O14924 17-108, limits assumed, looked up): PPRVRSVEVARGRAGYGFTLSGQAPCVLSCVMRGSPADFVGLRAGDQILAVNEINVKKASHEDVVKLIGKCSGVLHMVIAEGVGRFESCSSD

[8] = target: T7, PDZRN3_2, Q9UPQ7
T7 sequence (Q9UPQ7 414-513, limits assumed, looked up): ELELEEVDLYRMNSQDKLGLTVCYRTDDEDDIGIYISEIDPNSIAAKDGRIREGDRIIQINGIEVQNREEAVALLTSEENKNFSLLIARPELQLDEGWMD

[9] = target: MAGIX, Q9H6Y5
Sequence of MAGIX, Q9H6Y5 (Q9H6Y5 118-211): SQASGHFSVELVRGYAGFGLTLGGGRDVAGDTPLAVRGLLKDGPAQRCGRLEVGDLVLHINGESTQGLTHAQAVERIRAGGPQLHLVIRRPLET

[10] = target: AHNAK2, Q8IVF2
Sequence of AHNAK2, Q8IVF2 (Q8IVF2 108-193): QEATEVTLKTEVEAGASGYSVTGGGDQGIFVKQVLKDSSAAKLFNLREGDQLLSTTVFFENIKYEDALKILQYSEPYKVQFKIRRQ

[11] = target: MAGI1_4, Q96QZ7
Sequence of MAGI1_4, Q96QZ7 (Q96QZ7 other isoform, or with tags, fused parts or gaps): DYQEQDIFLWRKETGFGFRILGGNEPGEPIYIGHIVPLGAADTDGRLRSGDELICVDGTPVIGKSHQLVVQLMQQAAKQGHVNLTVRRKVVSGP

[12] = target: T8, MPDZ_13, O75970
T8 sequence (O75970 1982-2070, limits assumed, looked up): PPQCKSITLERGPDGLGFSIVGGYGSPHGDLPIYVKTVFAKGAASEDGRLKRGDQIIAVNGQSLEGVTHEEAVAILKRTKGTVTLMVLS

[13] = target: T9, SHANK3, Q9BYB0
T9 sequence (Q9BYB0 641-750, limits assumed, looked up): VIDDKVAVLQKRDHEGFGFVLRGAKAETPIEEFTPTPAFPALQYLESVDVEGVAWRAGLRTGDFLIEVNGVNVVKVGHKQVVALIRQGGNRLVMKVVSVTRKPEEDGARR

[14] = target: RIMS2, Q9UQ26
Sequence of RIMS2, Q9UQ26 (Q9UQ26 637-758): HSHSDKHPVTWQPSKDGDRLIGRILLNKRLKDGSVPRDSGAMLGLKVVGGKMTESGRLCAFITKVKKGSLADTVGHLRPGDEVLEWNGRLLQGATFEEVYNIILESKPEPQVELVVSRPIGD

[15] = target: IL16_2, Q14005
Sequence of IL16_2, Q14005 (Q14005 350-450): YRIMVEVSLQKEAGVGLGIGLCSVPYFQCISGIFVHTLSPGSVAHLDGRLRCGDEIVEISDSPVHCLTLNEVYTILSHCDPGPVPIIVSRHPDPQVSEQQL

[16] = target: T10, MLLT4, P55196
T10 sequence (P55196 1002-1103, limits assumed, looked up): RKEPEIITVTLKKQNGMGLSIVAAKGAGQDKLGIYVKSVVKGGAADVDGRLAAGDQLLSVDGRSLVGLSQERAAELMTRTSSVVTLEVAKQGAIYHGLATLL

[17] = target: PTPN13_2, Q12923
Sequence of PTPN13_2, Q12923 (Q12923 1363-1462): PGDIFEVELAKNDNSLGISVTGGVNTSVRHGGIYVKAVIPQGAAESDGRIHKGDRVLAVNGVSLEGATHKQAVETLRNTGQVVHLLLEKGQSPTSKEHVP

[18] = target: T11, NHERF1_1, O14745
T11 sequence (O14745 9-104, limits assumed, looked up): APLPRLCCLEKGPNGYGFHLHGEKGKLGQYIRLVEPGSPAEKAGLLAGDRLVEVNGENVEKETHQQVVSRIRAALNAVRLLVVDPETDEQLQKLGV

[19] = target: T12, PDZD7_1, Q9H5P4
T12 sequence (Q9H5P4 81-178, limits assumed, looked up): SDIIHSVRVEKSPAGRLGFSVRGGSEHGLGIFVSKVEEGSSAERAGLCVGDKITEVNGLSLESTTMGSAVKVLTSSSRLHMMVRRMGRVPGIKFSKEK

[20] = target: T13, GRIP1_1, Q9Y3R0
T13 sequence (Q9Y3R0 48-146, limits assumed, looked up): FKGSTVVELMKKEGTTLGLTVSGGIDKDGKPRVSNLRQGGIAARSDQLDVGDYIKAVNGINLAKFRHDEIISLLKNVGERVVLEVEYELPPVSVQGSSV

[21] = target: T14, MPDZ_6, O75970
T14 sequence (O75970 1003-1099, limits assumed, looked up): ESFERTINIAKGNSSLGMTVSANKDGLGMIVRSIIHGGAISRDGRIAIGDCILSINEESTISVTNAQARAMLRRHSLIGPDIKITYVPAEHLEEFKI

[22] = target: PARD3_1, Q8TEW0
Sequence of PARD3_1, Q8TEW0 (Q8TEW0 264-372): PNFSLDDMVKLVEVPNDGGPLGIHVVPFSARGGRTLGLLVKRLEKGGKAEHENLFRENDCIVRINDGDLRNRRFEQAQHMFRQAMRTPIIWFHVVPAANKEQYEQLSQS

[23] = target: PDZD9, Q8IXQ8
Sequence of PDZD9, Q8IXQ8 (Q8IXQ8 23-120): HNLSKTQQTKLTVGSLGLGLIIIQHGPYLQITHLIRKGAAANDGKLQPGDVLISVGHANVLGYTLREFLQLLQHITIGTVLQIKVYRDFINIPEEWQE

[24] = target: DLG2_1, Q15700

In the case of SSLQSLETSV [ATP2B4, P23634], the pKd [1] is reported as 4.23, the pKd [2] is reported as “below the threshold” and the pKd [3] is reported as “below the threshold”. The pKd [4] was “below the threshold”, the pKd [5] was “below the threshold” and the pKd [6] was “below the threshold”. The pKd [7] was “below the threshold”, the pKd [8] was “below the threshold” and the pKd [9] was “below the threshold”. The pKd [10] was “below the threshold”, the pKd [11] was “below the threshold” and the pKd [12] was “below the threshold”. The pKd [13] was “below the threshold”, the pKd [14] was “below the threshold” and the pKd [15] was “below the threshold”. The pKd [16] was “below the threshold”, the pKd [17] was 4.45 and the pKd [18] was “below the threshold”. The pKd [19] was “below the threshold”, the pKd [20] was “below the threshold” and the pKd [21] was “below the threshold”. The pKd [22] was “below the threshold”, the pKd [23] was “below the threshold” and the pKd [24] was 4.94.

RLQRRRETQV [HPV18-E6, P06463] was tested, and the pKd [1] was “below the threshold”, the pKd [2] was “below the threshold” and the pKd [3] was “below the threshold”. For the same binder, the pKd [4] was 4, the pKd [5] was “below the threshold” and the pKd [6] was “below the threshold”. For the same binder, the pKd [7] was 4.35, the pKd [9] was “below the threshold” and the pKd [11] was 4.28. For the same binder, the pKd [12] was “below the threshold”, the pKd [13] was “below the threshold” and the pKd [14] was “below the threshold”. For the same binder, the pKd [15] was “below the threshold”, the pKd [16] was “below the threshold” and the pKd [17] was “below the threshold”. The pKd [18] was “below the threshold”, the pKd [19] was “below the threshold” and the pKd [20] was “below the threshold”. The pKd [21] was “below the threshold”, the pKd [22] was “below the threshold” and the pKd [23] was “below the threshold”. It also gave a pKd [24] of 5.11.

RHTTSTETAV [HPV30-E6, P36809] was tested, and the pKd [1] was 5.17, the pKd [2] was “below the threshold” and the pKd [3] was “below the threshold”. For the same binder, the pKd [4] was “below the threshold”, the pKd [5] was “below the threshold” and the pKd [6] was “below the threshold”. The pKd [7] was “below the threshold”, the pKd [8] was “below the threshold” and the pKd [9] was 5.35. The pKd [10] was “below the threshold”, the pKd [11] was “below the threshold” and the pKd [12] was “below the threshold”. The pKd [13] was “below the threshold”, the pKd [14] was “below the threshold” and the pKd [15] was “below the threshold”. For the same binder, the pKd [16] was “below the threshold”, the pKd [17] was “below the threshold” and the pKd [18] was “below the threshold”. The pKd [19] was “below the threshold”, the pKd [20] was 4.59 and the pKd [21] was “below the threshold”. The pKd [22] was “below the threshold”, the pKd [23] was “below the threshold” and the pKd [24] was 4.84.

For QRQARSETLV [HPV59-E6, Q81964], the pKd [1] was 6.03, the pKd [2] was “below the threshold” and the pKd [3] was “below the threshold”. The pKd [4] was “below the threshold”, the pKd [5] was “below the threshold” and the pKd [6] was 4.61. For the same binder, the pKd [7] was “below the threshold”, the pKd [8] was “below the threshold” and the pKd [9] was “below the threshold”. For the same binder, the pKd [10] was “below the threshold”, the pKd [11] was 4.65 and the pKd [12] was “below the threshold”. For the same binder, the pKd [13] was 4.22, the pKd [14] was “below the threshold” and the pKd [15] was “below the threshold”. For the same binder, the pKd [16] was 4.33, the pKd [17] was “below the threshold” and the pKd [18] was “below the threshold”. The pKd [19] was “below the threshold”, the pKd [20] was “below the threshold” and the pKd [21] was “below the threshold”. For the same binder, the pKd [22] was “below the threshold”, the pKd [23] was “below the threshold” and the pKd [24] was 4.52.

With SKPTRRETEV [HPV35-E6, P27228] the pKd [1] was “below the threshold”, the pKd [2] was “below the threshold” and the pKd [3] was “below the threshold”. For the same binder, the pKd [4] was 3.62, the pKd [5] was “below the threshold” and the pKd [7] was “below the threshold”. The pKd [8] was 3.57, the pKd [9] was 3.56 and the pKd [11] was “below the threshold”. For the same binder, the pKd [12] was 3.77, the pKd [13] was “below the threshold” and the pKd [14] was “below the threshold”. The pKd [15] was 3.57, the pKd [16] was 3.79 and the pKd [17] was “below the threshold”. For the same binder, the pKd [18] was “below the threshold”, the pKd [19] was “below the threshold” and the pKd [20] was “below the threshold”. The pKd [21] was “below the threshold”, the pKd [22] was “below the threshold” and the pKd [23] was “below the threshold”. For the same binder, the pKd [24] was 4.91.

RLPKIKETTV [FRMPD4, Q14CM0] was tested, and the pKd [1] was 5.3, the pKd [2] was “below the threshold” and the pKd [3] was 4.63. For the same binder, the pKd [4] was 4.25, the pKd [5] was “below the threshold” and the pKd [6] was “below the threshold”. The pKd [7] was 4.61, the pKd [8] was “below the threshold” and the pKd [9] was “below the threshold”. The pKd [10] was “below the threshold”, the pKd [11] was “below the threshold” and the pKd [12] was “below the threshold”. The pKd [13] was “below the threshold”, the pKd [14] was “below the threshold” and the pKd [15] was “below the threshold”. For the same binder, the pKd [16] was “below the threshold”, the pKd [17] was 4.31 and the pKd [18] was “below the threshold”. For the same binder, the pKd [19] was “below the threshold”, the pKd [20] was “below the threshold” and the pKd [21] was “below the threshold”. For the same binder, the pKd [22] was “below the threshold”, the pKd [23] was “below the threshold” and the pKd [24] was 5.32.
